We go through 2 molecules from paper PMC6477676, “Staufen2-mediated RNA recognition and localization requires combinatorial action of multiple domains”.

In one data set the target is T1, mStau2 dsRBD1-2 K59A (Mus musculus, UniProt Q8CJ67 8-181, K59A).
T1 sequence: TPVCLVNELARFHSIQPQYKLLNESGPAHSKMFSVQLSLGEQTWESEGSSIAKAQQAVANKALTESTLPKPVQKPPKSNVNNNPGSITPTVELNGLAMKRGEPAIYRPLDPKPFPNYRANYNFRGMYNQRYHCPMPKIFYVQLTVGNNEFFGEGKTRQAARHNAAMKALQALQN
As to the kind of experiment: SPR; Hill n 0.9; SPR: HBS-EP (10 mM HEPES pH 7.4, 150 mM NaCl, 3 mM EDTA, 0.005% P20); EMSA: 5 nM RNA, protein buffer (40 mM Bis-Tris pH 7, 150 mM NaCl, 2 mM DTT presumed), 4% glycerol, 30 ug/mL yeast tRNA, RT; NMR: 150 mM NaCl, 20 mM Na phosphate pH 7.0, 5 mM DTT, 298 K. Particulars: protein: recombinant; label: 5' 32P (EMSA); biotin (SPR); imperfect hairpin, 26 bp with two bulges.

The target in data set [1] is T2, mStau2 dsRBD1-2 H36A (Mus musculus, UniProt Q8CJ67 8-181, H36A).
T2 sequence: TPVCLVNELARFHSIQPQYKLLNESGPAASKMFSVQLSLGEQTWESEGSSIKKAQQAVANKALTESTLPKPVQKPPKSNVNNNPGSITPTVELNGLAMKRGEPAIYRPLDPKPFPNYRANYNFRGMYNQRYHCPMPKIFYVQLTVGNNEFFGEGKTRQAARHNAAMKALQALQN
The description is as above. Particulars: protein: recombinant; label: 5' 32P (EMSA); biotin (SPR); imperfect hairpin, 26 bp with two bulges. (In general: Mobility shift assays separate free from complexed probe on a gel.)

Another data set deals with T3, mStau2 dsRBD2 (Mus musculus, UniProt Q8CJ67 95-181).
T3 sequence: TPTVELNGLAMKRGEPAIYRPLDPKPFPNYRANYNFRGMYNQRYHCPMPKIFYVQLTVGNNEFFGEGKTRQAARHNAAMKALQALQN
As to the kind of experiment: SPR; Hill n 1.1; text says 829 nM; SPR: HBS-EP (10 mM HEPES pH 7.4, 150 mM NaCl, 3 mM EDTA, 0.005% P20); EMSA: 5 nM RNA, protein buffer (40 mM Bis-Tris pH 7, 150 mM NaCl, 2 mM DTT presumed), 4% glycerol, 30 ug/mL yeast tRNA, RT; NMR: 150 mM NaCl, 20 mM Na phosphate pH 7.0, 5 mM DTT, 298 K. Particulars: protein: recombinant; label: 5' 32P (EMSA); biotin (SPR); imperfect hairpin, 26 bp with two bulges. (SPR reads the build-up and loss of mass on a sensor chip optically.)

In a further data set the target is T4, mStau2 dsRBD1-2 F40A (Mus musculus, UniProt Q8CJ67 8-181, F40A).
T4 sequence: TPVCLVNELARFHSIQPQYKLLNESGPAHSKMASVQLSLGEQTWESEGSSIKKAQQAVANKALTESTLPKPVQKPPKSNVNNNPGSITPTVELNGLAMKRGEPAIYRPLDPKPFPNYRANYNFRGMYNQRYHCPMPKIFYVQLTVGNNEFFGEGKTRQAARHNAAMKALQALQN
Briefly: SPR; Hill n 1; SPR: HBS-EP (10 mM HEPES pH 7.4, 150 mM NaCl, 3 mM EDTA, 0.005% P20); EMSA: 5 nM RNA, protein buffer (40 mM Bis-Tris pH 7, 150 mM NaCl, 2 mM DTT presumed), 4% glycerol, 30 ug/mL yeast tRNA, RT; NMR: 150 mM NaCl, 20 mM Na phosphate pH 7.0, 5 mM DTT, 298 K. Particulars: protein: recombinant; label: 5' 32P (EMSA); biotin (SPR); imperfect hairpin, 26 bp with two bulges.

A further data set has as its target T5, mStau2 dsRBD1-2 F157A (Mus musculus, UniProt Q8CJ67 8-181, F157A).
T5 sequence: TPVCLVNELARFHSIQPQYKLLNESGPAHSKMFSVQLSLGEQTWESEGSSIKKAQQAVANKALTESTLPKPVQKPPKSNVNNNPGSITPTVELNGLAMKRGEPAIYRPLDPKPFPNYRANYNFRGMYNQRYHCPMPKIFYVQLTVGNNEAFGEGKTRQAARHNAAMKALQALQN
Briefly: SPR; Hill n 1.5; stable kinetics; SPR: HBS-EP (10 mM HEPES pH 7.4, 150 mM NaCl, 3 mM EDTA, 0.005% P20); EMSA: 5 nM RNA, protein buffer (40 mM Bis-Tris pH 7, 150 mM NaCl, 2 mM DTT presumed), 4% glycerol, 30 ug/mL yeast tRNA, RT; NMR: 150 mM NaCl, 20 mM Na phosphate pH 7.0, 5 mM DTT, 298 K. Particulars: protein: recombinant; label: 5' 32P (EMSA); biotin (SPR); hairpin, 18 bp stem.

Another data set addresses T6, mStau2 dsRBD1-2 E15A (Mus musculus, UniProt Q8CJ67 8-181, E15A).
T6 sequence: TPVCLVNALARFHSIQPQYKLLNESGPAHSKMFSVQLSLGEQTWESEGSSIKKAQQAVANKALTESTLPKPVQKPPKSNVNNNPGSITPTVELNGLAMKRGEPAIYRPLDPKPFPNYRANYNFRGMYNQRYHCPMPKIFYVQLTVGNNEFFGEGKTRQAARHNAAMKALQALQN
As to the kind of experiment: SPR; Hill n 1; SPR: HBS-EP (10 mM HEPES pH 7.4, 150 mM NaCl, 3 mM EDTA, 0.005% P20); EMSA: 5 nM RNA, protein buffer (40 mM Bis-Tris pH 7, 150 mM NaCl, 2 mM DTT presumed), 4% glycerol, 30 ug/mL yeast tRNA, RT; NMR: 150 mM NaCl, 20 mM Na phosphate pH 7.0, 5 mM DTT, 298 K. To be noted: protein: recombinant; label: 5' 32P (EMSA); biotin (SPR); hairpin, 18 bp stem.

Data set [2] addresses T2, mStau2 dsRBD1-2 H36A. The data set is described as above. Particulars: protein: recombinant; label: 5' 32P (EMSA); biotin (SPR); hairpin, 18 bp stem.

B1: SRS* (SRS3) (structured_RNA)
RNA: GGUAUGUGUGAAUGUGCAUGAAUAUAUAUAUAUAUGCAUAUAUAUAUUUGUAUAUGUUCACACAUG
The term Kd denotes the constant that tells how readily two partners part at equilibrium. Turning to B1, the Kd with mStau2 dsRBD1-2 K59A was determined as 624 ± 142 nM; with mStau2 dsRBD1-2 H36A [1], 499 ± 149 nM; with mStau2 dsRBD2 it was 828 ± 29 nM; with mStau2 dsRBD1-2 F40A it was 769 ± 427 nM.

In the case of GGUAUAUACAUGCACAUGCAAUUUGUGUAUGUGUAUGUAUAUA (structured_RNA) [SRS2+5], the Kd with mStau2 dsRBD1-2 F157A was 497 ± 238 nM; with mStau2 dsRBD1-2 E15A, 132 ± 31 nM; with mStau2 dsRBD1-2 H36A [2], 701 ± 386 nM.
